The values that follow come from publication PMC10585395.

The assay concerns the target Regulatory ATPase variant A (RavA) (E. coli) (UniProt P31473).

B1: von Willebrand factor type A interacting with AAA+ ATPase (ViaA) (natural protein)
chain: MLTLDTLNVMLAVSEEGLIEEMIIALLASPQLAVFFEKFPRLKAAITDDVPRWREALRSRLKDARVPPELTEEVMCYQQSQLLSTPQFIVQLPQILDLLHRLNSPWAEQARQLVDANSTITSALHTLFLQRWRLSLIVQATTLNQQLLEEEREQLLSEVQERMTLSGQLEPILADNNTAAGRLWDMSAGQLKRGDYQLIVKYGEFLNEQPELKRLAEQLGRSREAKSIPRNDAQMETFRTMVREPATVPEQVDGLQQSDDILRLLPPELATLGITELEYEFYRRLVEKQLLTYRLHGESWREKVIERPVVHKDYDEQPRGPFIVCVDTSGSMGGFNEQCAKAFCLALMRIALAENRRCYIMLFSTEIVRYELSGPQGIEQAIRFLSQQFRGGTDLASCFRAIMERLQSREWFDADAVVISDFIAQRLPDDVTSKVKELQRVHQHRFHAVAMSAHGKPGIMRIFDHIWRFDTGMRSRLLRRWRR
B1 displayed an ATPase activity of 0.5 uM RavA with equimolar full-length ViaA (ATP-NADH coupled assay) of 3 fold.
